Reference: IntAct's records for PubMed 17380128

B1: Retinoblastoma-associated protein (Homo sapiens), P06400 (parent)
chain: MPPKTPRKTAATAAAAAAEPPAPPPPPPPEEDPEQDSGPEDLPLVRLEFEETEEPDFTALCQKLKIPDHVRERAWLTWEKVSSVDGVLGGYIQKKKELWGICIFIAAVDLDEMSFTFTELQKNIEISVHKFFNLLKEIDTSTKVDNAMSRLLKKYDVLFALFSKLERTCELIYLTQPSSSISTEINSALVLKVSWITFLLAKGEVLQMEDDLVISFQLMLCVLDYFIKLSPPMLLKEPYKTAVIPINGSPRTPRRGQNRSARIAKQLENDTRIIEVLCKEHECNIDEVKNVYFKNFIPFMNSLGLVTSNGLPEVENLSKRYEEIYLKNKDLDARLFLDHDKTLQTDSIDSFETQRTPRKSNLDEEVNVIPPHTPVRTVMNTIQQLMMILNSASDQPSENLISYFNNCTVNPKESILKRVKDIGYIFKEKFAKAVGQGCVEIGSQRYKLGVRLYYRVMESMLKSEEERLSIQNFSKLLNDNIFHMSLLACALEVVMATYSRSTSQNLDSGTDLSFPWILNVLNLKAFDFYKVIESFIKAEGNLTREMIKHLERCEHRIMESLAWLSDSPLFDLIKQSKDREGPTDHLESACPLNLPLQNNHTAADMYLSPVRSPKKKGSTTRVNSTANAETQATSAFQTQKPLKSTSLSLFYKKVYRLAYLRLNTLCERLLSEHPELEHIIWTLFQHTLQNEYELMRDRHLDQIMMCSMYGICKVKNIDLKFKIIVTAYKDLPHAVQETFKRVLIKEEEYDSIIVFYNSVFMQRLKTNILQYASTRPPTLSPIPHIPRSPYKFPSSPLRIPGGNIYISPLKSPYKISEGLPTPTKMTPRSRILVSIGESFGTSEKFQKINQMVCNSDRVLKRSAEGSNPPKPLKKLRFDIEGSDEADGSKHLPGESKFQQKLAEMTSTRTRMQKQKMNDSMDTSNKEEK

Variants of: B1
Details: with e2f1_human E2F1, Q01094
Chain of e2f1_human E2F1, Q01094 (Q01094 whole entry): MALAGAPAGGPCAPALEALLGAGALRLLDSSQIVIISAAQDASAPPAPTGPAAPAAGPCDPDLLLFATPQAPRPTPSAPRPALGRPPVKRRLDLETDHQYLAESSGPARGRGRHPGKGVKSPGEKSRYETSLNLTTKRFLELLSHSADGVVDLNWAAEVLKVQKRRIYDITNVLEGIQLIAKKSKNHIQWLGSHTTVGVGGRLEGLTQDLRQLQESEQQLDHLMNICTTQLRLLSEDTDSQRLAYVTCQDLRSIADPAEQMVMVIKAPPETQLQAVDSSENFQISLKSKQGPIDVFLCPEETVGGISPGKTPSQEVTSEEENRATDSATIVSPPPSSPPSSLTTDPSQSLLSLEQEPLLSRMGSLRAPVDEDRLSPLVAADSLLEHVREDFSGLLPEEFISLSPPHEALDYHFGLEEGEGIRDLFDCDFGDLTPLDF

Q: How did the “effect of a mutation on the interaction” value turn out when S612A was run?
A: decreasing interaction
